Patent US20240294983A1 (CALIFORNIA INSTITUTE OF TECHNOLOGY, published 2024)

B1: SC35 (protein, human, UniProt Q01130 2-221, looked up)
chain: SYGRPPPDVEGMTSLKVDNLTYRTSPDTLRRVFEKYGRVGDVYIPRDRYTKESRGFAFVRFHDKRDAEDAMDAMDGAVLDGRELRVQMARYGRPPDSHHSRRGPPPRRYGGGGYGRRSRSPRRRRRSRSRSRSRSRSRSRSRYSRSKSRSRTRSRSRSTSKSRSARRSKSKSSSVSRSRSRSRSRSRSRSPPPVSKRESKSRSRSKSPPKSPEEEGAVSS
B2: E-cadherin (receptor, human, UniProt P12830 155-882, looked up)
chain: DWVIPPISCPENEKGPFPKNLVQIKSNKDKEGKVFYSITGQGADTPPVGVFIIERETGWLKVTEPLDRERIATYTLFSHAVSSNGNAVEDPMEILITVTDQNDNKPEFTQEVFKGSVMEGALPGTSVMEVTATDADDDVNTYNAAIAYTILSQDPELPDKNMFTINRNTGVISVVTTGLDRESFPTYTLVVQAADLQGEGLSTTATAVITVTDTNDNPPIFNPTTYKGQVPENEANVVITTLKVTDADAPNTPAWEAVYTILNDDGGQFVVTTNPVNNDGILKTAKGLDFEAKQQYILHVAVTNVVPFEVSLTTSTATVTVDVLDVNEAPIFVPPEKRVEVSEDFGVGQEITSYTAQEPDTFMEQKITYRIWRDTANWLEINPDTGAISTRAELDREDFEHVKNSTYTALIIATDNGSPVATGTGTLLLILSDVNDNAPIPEPRTIFFCERNPKPQVINIIDADLPPNTSPFTAELTHGASANWTIQYNDPTQESIILKPKMALEVGDYKINLKLMDNQNKDQVTTLEVSVCDCEGAAGVCRKAQPVEAGLQIPAILGILGGILALLILILLLLLFLRRRAVVKEPLLPPEDDTRDNVYYYDEEGGGEEDQDFDLSQLHRGLDARPEVTRNDVAPTLMSVPRYLPRPANPDEIGNFIDENLKAADTDPTAPPYDSLLVFDYEGSGSEAASLSSLNSSESDKDQDYDYLNEWGNRFKKLADMYGGGEDD
notes: Endogenous membrane protein in fixed human cells or tissue, detected through an unnamed primary antibody and a fractional-initiator secondary antibody probe
B3: β-catenin (other, human, UniProt P35222 2-781, looked up)
chain: ATQADLMELDMAMEPDRKAAVSHWQQQSYLDSGIHSGATTTAPSLSGKGNPEEEDVDTSQVLYEWEQGFSQSFTQEQVADIDGQYAMTRAQRVRAAMFPETLDEGMQIPSTQFDAAHPTNVQRLAEPSQMLKHAVVNLINYQDDAELATRAIPELTKLLNDEDQVVVNKAAVMVHQLSKKEASRHAIMRSPQMVSAIVRTMQNTNDVETARCTAGTLHNLSHHREGLLAIFKSGGIPALVKMLGSPVDSVLFYAITTLHNLLLHQEGAKMAVRLAGGLQKMVALLNKTNVKFLAITTDCLQILAYGNQESKLIILASGGPQALVNIMRTYTYEKLLWTTSRVLKVLSVCSSNKPAIVEAGGMQALGLHLTDPSQRLVQNCLWTLRNLSDAATKQEGMEGLLGTLVQLLGSDDINVVTCAAGILSNLTCNNYKNKMMVCQVGGIEALVRTVLRAGDREDITEPAICALRHLTSRHQEAEMAQNAVRLHYGLPVVVKLLHPPSHWPLIKATVGLIRNLALCPANHAPLREQGAIPRLVQLLVRAHQDTQRRTSMGGTQQQFVEGVRMEEIVEGCTGALHILARDVHNRIVIRGLNTIPLFVQLLYSPIENIQRVAAGVLCELAQDKEAAEAIEAEGATAPLTELLHSRNEGVATYAAAVLFRMSEDKPQDYKKRLSVELTSSLFRTEPMAWNETADLGLDIGAQGEPLGYRQDDPSYRSFHSGGYGQDALGMDPMMEHEMGGHHPGADYPVDGLPDLGHAQDLMDGLPPGDSNQLAWFDTDL
notes: Endogenous protein in fixed human cells or tissue, detected through an unnamed primary antibody and a fractional-initiator secondary antibody probe

Key:
[1] = substrate: SON (human) (UniProt P18583); experiment: HCR proximity imaging of the endogenous complex in fixed A-431 human cells; background from controls omitting the antibodies to one protein; SEM, N=3 cells
[2] = molecular target: B3; experiment: HCR proximity imaging; A-431 cells positive sample, HeLa cells negative sample
Procedure: (§1) For each pair of sample types, signal-to-background was calculated using the positive sample type to estimate signal plus background and the negative sample type to estimate background.
(§2) While A-431 cells formed the β-catenin:E-cadherin complex at the cell membrane of intercellular junctions,⁶³ HeLa cells express N-cadherin rather than E-cadherin^{64,65} and therefore lacked the β-catenin:E-cadherin complex.

[3] = molecular target: B2; experiment: HCR proximity imaging; A-431 cells (positive) against HeLa cells (negative, lacking E-cadherin); mean±SEM, N=3 wells
Procedure: as §1, §2

[4] = molecular target: B2; experiment: HCR proximity imaging of the endogenous complex in fixed A-431 human cells; background from controls omitting the antibodies to one protein; SEM, N=3 cells
Procedure: For each protein:protein complex, background was assessed by technical controls in which the antibodies corresponding to one protein of the complex were omitted, simulating a scenario in which the two proteins are not in a complex with one another. For each of three protein:protein target complexes, a high signal-to-background ratio was obtained: 170±10 (SC35:SON), 50±10 (β-catenin:E-cadherin), and 140±10 (α-tubulin:β-tubulin) (standard error of the mean, representative regions within N=3 cells).

[5] = molecular target: B2; experiment: HCR proximity imaging in FFPE human breast tissue section; background from a region with low/no complex; SEM, N=3 regions
Procedure: FIG. 16 depicts imaging the β-catenin:E-cadherin target complex in a highly autofluorescent FFPE human breast tissue section (5-μm thickness) using a pair of fractional-initiator probes, a proximity probe, and an HCR amplifier. Background was assessed by fluorescence in a region of the sample in which there is low/no abundance of the protein:protein complex. A high signal-to-background ratio was obtained (70±20) (standard error of the mean, N=3 representative regions).

[6] = molecular target: B2; experiment: HCR proximity imaging; normal against invasive lobular carcinoma FFPE human breast tissue sections; mean±SEM, N=3 sections
Procedure: as §1
The β-catenin:E-cadherin target complex was detected in highly autofluorescent FFPE human breast tissue sections. The β-catenin:E-cadherin complex is robustly formed in normal breast epithelial cells, but the expression of and interaction between the β-catenin and E-cadherin proteins is interrupted when breast epithelial cells become cancerous in the invasive lobular carcinoma disease process.^{66,67} Paired normal and invasive lobular carcinoma FFPE breast tissue sections from the same patient were evaluated for the β-catenin:E-cadherin target complex, yielding strong HCR signal in normal breast tissue (FIG. 45C; positive sample) and no visible staining in cancerous tissue (FIG. 45D; negative sample), with a signal-to-background ratio of 30±3 between the two tissue types (mean±SEM for representative regions of N=3 replicate sections).

Sequence of SON (human) (P18583 2-2426 limits assumed): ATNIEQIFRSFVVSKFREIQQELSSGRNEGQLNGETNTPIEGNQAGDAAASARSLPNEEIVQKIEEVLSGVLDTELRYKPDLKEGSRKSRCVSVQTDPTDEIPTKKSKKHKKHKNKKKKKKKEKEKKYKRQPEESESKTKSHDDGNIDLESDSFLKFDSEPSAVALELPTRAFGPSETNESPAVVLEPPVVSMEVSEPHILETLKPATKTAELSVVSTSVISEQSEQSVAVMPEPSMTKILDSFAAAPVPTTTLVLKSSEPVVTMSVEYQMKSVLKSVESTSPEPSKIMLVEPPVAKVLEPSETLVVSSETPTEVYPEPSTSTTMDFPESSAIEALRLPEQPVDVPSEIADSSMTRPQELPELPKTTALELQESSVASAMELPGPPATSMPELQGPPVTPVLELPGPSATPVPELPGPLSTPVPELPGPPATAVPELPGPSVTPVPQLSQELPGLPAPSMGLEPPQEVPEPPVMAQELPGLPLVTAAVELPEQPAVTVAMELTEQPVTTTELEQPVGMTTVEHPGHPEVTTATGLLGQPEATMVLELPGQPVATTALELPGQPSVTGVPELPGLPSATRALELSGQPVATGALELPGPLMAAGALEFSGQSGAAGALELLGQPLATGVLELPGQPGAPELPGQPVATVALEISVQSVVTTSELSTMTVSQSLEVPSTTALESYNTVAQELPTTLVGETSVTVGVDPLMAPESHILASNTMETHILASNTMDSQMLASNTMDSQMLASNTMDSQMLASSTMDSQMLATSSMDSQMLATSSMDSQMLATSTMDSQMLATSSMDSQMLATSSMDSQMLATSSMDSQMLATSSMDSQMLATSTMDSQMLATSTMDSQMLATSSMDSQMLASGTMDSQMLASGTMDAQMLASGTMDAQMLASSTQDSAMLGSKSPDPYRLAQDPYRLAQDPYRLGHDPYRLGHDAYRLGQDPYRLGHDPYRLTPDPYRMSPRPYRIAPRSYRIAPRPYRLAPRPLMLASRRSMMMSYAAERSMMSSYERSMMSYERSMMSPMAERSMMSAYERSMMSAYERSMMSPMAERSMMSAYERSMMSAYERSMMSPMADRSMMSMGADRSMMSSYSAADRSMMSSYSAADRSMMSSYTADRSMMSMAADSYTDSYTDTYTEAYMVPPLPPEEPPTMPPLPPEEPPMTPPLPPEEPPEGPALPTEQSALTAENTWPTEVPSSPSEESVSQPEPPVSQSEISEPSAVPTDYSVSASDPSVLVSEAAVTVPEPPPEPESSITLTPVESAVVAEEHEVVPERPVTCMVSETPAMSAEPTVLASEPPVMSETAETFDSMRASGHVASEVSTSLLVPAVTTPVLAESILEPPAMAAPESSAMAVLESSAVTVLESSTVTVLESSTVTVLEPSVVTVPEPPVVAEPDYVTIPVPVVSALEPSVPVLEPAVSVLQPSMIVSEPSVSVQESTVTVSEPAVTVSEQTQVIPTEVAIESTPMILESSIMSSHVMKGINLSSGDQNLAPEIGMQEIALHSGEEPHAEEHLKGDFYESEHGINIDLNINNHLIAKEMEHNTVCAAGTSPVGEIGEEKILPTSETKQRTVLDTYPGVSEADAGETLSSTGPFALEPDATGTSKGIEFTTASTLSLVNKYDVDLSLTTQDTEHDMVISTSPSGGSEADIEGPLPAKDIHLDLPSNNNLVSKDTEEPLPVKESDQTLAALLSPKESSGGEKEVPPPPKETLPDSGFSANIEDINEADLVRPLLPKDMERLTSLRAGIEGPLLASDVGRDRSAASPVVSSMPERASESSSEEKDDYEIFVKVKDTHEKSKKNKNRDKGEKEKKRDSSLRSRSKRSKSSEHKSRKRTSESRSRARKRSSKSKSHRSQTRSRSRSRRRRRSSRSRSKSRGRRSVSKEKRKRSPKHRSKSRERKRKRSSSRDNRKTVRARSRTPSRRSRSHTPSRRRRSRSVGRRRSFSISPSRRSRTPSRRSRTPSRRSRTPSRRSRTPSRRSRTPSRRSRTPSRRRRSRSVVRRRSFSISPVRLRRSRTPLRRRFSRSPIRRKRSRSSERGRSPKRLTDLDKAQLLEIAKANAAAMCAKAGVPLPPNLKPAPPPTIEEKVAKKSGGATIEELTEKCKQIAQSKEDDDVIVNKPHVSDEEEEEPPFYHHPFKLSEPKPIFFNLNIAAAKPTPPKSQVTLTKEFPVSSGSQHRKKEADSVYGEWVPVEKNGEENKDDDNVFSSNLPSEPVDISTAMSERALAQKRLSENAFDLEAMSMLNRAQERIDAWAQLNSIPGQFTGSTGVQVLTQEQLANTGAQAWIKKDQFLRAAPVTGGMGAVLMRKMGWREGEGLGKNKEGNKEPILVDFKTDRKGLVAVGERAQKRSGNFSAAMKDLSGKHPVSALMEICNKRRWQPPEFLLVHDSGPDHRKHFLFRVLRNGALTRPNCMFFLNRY

B1
signal-to-background ratio [1]: 170

B2
binding result [2]: binds

B3
signal-to-background ratio [3]: 26
signal-to-background ratio [4]: 50
signal-to-background ratio [5]: 70
signal-to-background ratio [6]: 30
